For one substance, GLP-1R BA (10 uM albumin) EC50 (pM) n = 2 (CRE-luciferase reporter in CHO 6CRE GLP1R cells) and GLP-1R BA EC50 (pM) n = 3 (CRE-luciferase reporter in CHO 6CRE GLP1R cells) results are on record in patent US20130189255A1, “FUSIONS AND CONJUGATES OF INSULINOTROPIC AGENTS” (GLAXO GROUP LIMITED, priority 2008, published 2013).

For the test, the target named is human GLP-1 receptor (human) (UniProt P43220). Put plainly: cell-based or functional assay.
human GLP-1 receptor (human), sequence (P43220 24-463): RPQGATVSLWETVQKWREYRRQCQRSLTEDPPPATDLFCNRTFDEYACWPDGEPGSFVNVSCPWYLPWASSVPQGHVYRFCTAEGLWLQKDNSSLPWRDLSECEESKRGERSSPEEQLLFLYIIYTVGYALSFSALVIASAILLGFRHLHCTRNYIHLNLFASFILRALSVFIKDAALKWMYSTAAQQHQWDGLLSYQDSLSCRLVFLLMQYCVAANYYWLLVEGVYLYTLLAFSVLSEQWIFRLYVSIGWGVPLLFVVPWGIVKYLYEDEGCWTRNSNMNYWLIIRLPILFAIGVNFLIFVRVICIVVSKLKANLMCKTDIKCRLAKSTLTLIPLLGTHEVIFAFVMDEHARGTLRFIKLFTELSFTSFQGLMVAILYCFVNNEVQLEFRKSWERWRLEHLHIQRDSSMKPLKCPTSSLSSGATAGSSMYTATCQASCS

“GLP-1 7-36 (from UniProt P01275 21-180) (peptide)” registered a GLP-1R BA (10 uM albumin) EC50 (pM) n = 2 (CRE-luciferase reporter in CHO 6CRE GLP1R cells) of 19 pM and a GLP-1R BA EC50 (pM) n = 3 (CRE-luciferase reporter in CHO 6CRE GLP1R cells) of 21 pM.
